Assay: soluble on expression in E. coli; label from the status in PepcDB or PDB records

Sequence	soluble on expression in E. coli
MSNVIFSQKLYDTAQMVVDGCMGDADPACQTACPMHTDVKQYVRLAGEGNYQEALDLIRGKLFLPQTLGRICAHPCEAACRRNTEYNQPISVAGIKRFVAEKMDKQSNWDLTVANDSGKKIAIVGAGPAGAQAAIELRRSGHQVTIYEKLNVYGGMMRVGIPEYRLPRDVIDFEYGYLDMLGIETKFGIEIGKDISFNELRLSHDAIILAHGAHVGSIIPLPGHKAQGVFSAVEYLKEVSETRDFPRAGKRIMVIGGGDVAMDCARSSWRIGVDEVHQCSLEEMAKLPASQIEIDESLEEGVLFNAGWGPISIEETDGKVTGIVLKKVISIFDENGNFSPSYSDETRTIAVDTVIFATGQVVADITDGALEQTRGGRYVVDKDTLASSVDGVYVAGDACGGNIVVEAMALGHKAALSIERQFAKRPLTENRDFEKEYNYPSRLDIPLPKGTTDTPRLHGQLRDAEERKQDFKQVDLGFSEEQIKQEASRCLQCTCKLCMNECVMMNDFGDCPKTLFSDFINNKTMDPLLAYSCNACDQCTIVCPKDYPMKEMFLSARVDFVNANGGNSPIPGHKAINMHQKLGFSKFFTMAKRTVASKLEHHHHHH	not soluble
MLYVILRGRLGNNLFQIATAASLTQNFIFCTVNKDQERQVLLYKDSFFKNIKVMKGVPDGIPYYKEPFHEFSRIPYEEGKDLIIDGYFQSEKYFKRSVVLDLYRITDELRKKIWNICGNILEKGETVSIHVRRGDYLKLPHALPFCGKSYYKNAIQYIGEDKIFIICSDDIDWCKKNFIGKRYYFIENTTPLLDLYIQSLCTHNIISNSSFSWWGAWLNENSNKIVIAPQMWFGISVKLGVSDLLPVSWVRLPNNYTLGRYCFALYKVVEDYLLNILRLIWKRKKNMLEHHHHHH	not soluble
MHVLTLDLAPVTPKDAPLLHRVFHLSPSYFALIGMELPTLEDVVRDLQTLEVDPRRRAFLLFLGQEPVGYLDAKLGYPEAEDATLSLLLIREDHQGRGLGRQALERFAAGLDGVRRLYAVVYGHNPKAKAFFQAQGFRYVK	not soluble
MLKKFFLPDEFVKNIFHITPEKLKERNVKGIITDLDNTLVEWDRPNATPRLIEWFEEMKEHGIKVTIVSNNNERRVKLFSEPLGIPFIYKARKPMGKAFNRAVRNMELKKEDCVVIGDQLLTDVLGGNRNGYHTILVVPVASSDGFITRFNRQVERRILSALKRKGHIQWEELEHHHHHH	soluble
MARGMNHVYLIGALARDPELRYTGNGMAVFEATVAGEDRVIGNDGRERNLPWYHRVSILGKPAEWQAERNLKGGDAVVVEGTLEYRQWEAPEGGKRSAVNVKALRMEQLGTQPELIQDAGGGVRMSGAMNEVLVLGNVTRDPEIRYTPAGDAVLSLSIAVNENYQDRQGQRQEKVHYIDATLWRDLAENMKELRKGDPVMIMGRLVNEGWTDKDGNKRNSTRVEATRVEALARGAGNANSGYAAATPAAPRTQTASSAARPTSGGYQSQPSRAANTGSRSGGLDIDQGLDDFPPEEDDLPF	soluble
MGSDKIHHHHHHSCGDKMNKNTGALEFDSIQVNETAHLFGDTAKPACNLTINFAYPVKSTDNKLKDSLNSYFIAACFGEGYIGEKPAQVVKEYTEHYVKEYRTDLEPMYAEDEKNKESEGSIGAWYSYYKGIESHVQLYYKNLLVYRINYNEYTGGAHGIYMTTFLNMDLINLRPLKLDDIFTGDYKEALTDLLWNQLMADKKVTTHEALEDMGYGSTGDIAPTENFYLDKDGITFYYNVYDITPYAMGPVEIKIPYEMMEHMLGSNPIIGEMKSK	not soluble
MAHHHHHHMVVLKGGGTTYAVGNGRQMPWEEVPEGFKRRLAEQEEITPCVELRAIAQRCIEVEGFWAPNCVEATEQFHSCQAQHLAGCLPNWTHHNNNNINN	not soluble
ENYLSIEKRLYENLAQESSHSASRLQFLLEHAQANTQGLSDFIGLLADKDDINNPEKLKTVLTNRIQRNPDFFGSAIAFKPNTFPNKKLFSPYVYRSGSGFNYLDIGADGYDYTDGNWDWWSKAINQVGGYWSKAYFDEGAGNVLMITYAVPFGVQPDYFGVTTVDLALDRLPEQLGIAPSRLVVLDDQGRLIFHSDKEKVLAASSSGWLDKQNIKNIAFATLLNDGQAGQASFVDDKGTVYLASVAEVAKLKWRVVVMVPKHELFASLLDDIA	soluble
MRGSHHHHHHGSMDAQSAAKCLTAVRRHSPLVHSITNNVVTNFTANGLLALGASPVMAYAKEEVADMAKIAGALVLNIGTLSKESVEAMIIAGKSANEHGVPVILDPVGAGATPFRTESARDIIREVRLAAIRGNAAEIAHTVGVTDWLIKGVDAGEGGGDIIRLAQQAAQKLNTVIAITGEVDVIADTSHVYTLHNGHKLLTKVTGAGSLLTSVVGAFCAVEENPLFAAIAAISSYGVAAQLAAQQTADKGPGSFQIELLNKLSTVTEQDVQEWATIERVTVS	soluble
MSLKKFSCGFEVTKEVIGGKWKGLVLYFLMNGPKRTSELKRIIPNITQKMLIQTLRELEASGLVSRKMYNQVPPKVEYSSTELGESLKPILQELCQWGGYYAEQEYAEGEYEIVQPEQLSEGGSHHHHHH	soluble
MGHHHHHHSHMRRAALRLCALGKGQLTPGRGLTQGPQNPKKQGIFHIHEVRDKLREIVGASTNWRDHVKAMEERKLLHSFLAKSQDGLPPRRMKDSYIEVLLPLGSEPELREKYLTVQNTVRFGRILEDLDSLGVLICYMHNKIHSAKMSPLSIVTALVDKIDMCKKSLSPEQDIKFSGHVSWVGKTSMEVKMQMFQLHGDEFCPVLDATFVMVARDSENKG	not soluble
MERIIQQTDYDALSCKLAAISVGYLPSSGLQRLSVDLSKKYTEWHRSYLITLKKFSRRAFGKVDKAMRSSFPVMNYGTYLRTVGIDAAILEFLVANEKVQVVNLGCGSDLRMLPLLQMFPHLAYVDIDYNESVELKNSILRESEILRISLGLSKEDTAKSPFLIDQGRYKLAACDLNDITETTRLLDVCTKREIPTIVISECLLCYMHNNESQLLINTIMSKFSHGLWISYDPIGGSQPNDRFGAIMQSNLKESRNLEMPTLMTYNSKEKYASRWSAAPNVIVNDMWEIFNAQIPESERKRLRSLQFLDELEELKVMQTHYILMKAQWHHHHHH	soluble
MTQPLVGKQILIVEDEPVFRSLLDSWFSSLGATTALAGDGVDALELMGRFTPDLMICDIAMPRMNGLKLVENLRNRGDQTPILVISATENMADIAKALRLGVEDVLLKPVKDLNRLRETVFACLYPNMFNSRVEEEERLFRDWDAMVSNPTAAAQLLQELQPPVQQVISHCRINYRQLVSADQPGLVLDIAPLSDNELAFYCLDVTRAGDNGVLAALLLRALFNGLLQDQLGQQKHRLPELGALLKQVNHLLRQANLPGQFPLFVGYYHSELKNLILVSAGLNATLNTGAHQVQISSGVPLGTLGNAYLNQLSQRCDSWQCQIWGAGGRLRLMLSAE	not soluble
SKLDSYTHLSFYEKRELFRKKLREIEGPEVTLVNEVDDEPCPSLDFQFISQYRLTQGVIPPDPNFQSGCNCSSLGGCDLNNPSRCECLDDLDEPTHFAYDAQGRVRADTGAVIYECNSFCSCSMECPNRVVQRGRTLPLEIFKTKEKGWGVRSLRFAPAGTFITCYLGEVITSAEAAKRDKNYDDDGITYLFDLDMFDDASEYTVDAQNYGDVSRFFNHSCSPNIAIYSAVRNHGFRTIYDLAFFAIKDIQPLEELTFDYAGAKDFSPVQSQKSQQNRISKLRRQCKCGSANCRGWLFG	soluble
MIVSSLRGGLGNQMFIYAMVKAMALRNNVPFAFNLTTDFANDEVYKRKLLLSYFALDLPENKKLTFDFSYGNYYRRLSRNLGCHILHPSYRYICEERPPHFESRLISSKITNAFLEGYWQSEKYFLDYKQEIKEDFVIQKKLEYTSYLELEEIKLLDKNAIMIGVRRYQESDVAPGGVLEDDYYKCAMDIMASKVTSPVFFCFSQDLEWVEKHLAGKYPVRLISKKEDDSGTIDDMFLMMHFRNYIISNSSFYWWGAWLSKYDDKLVIAPGNFINKDSVPESWFKLNVRMAGDPLEHHHHHH	not soluble
MAHHHHHHMDKISPEILAARAKLKEKMGGNLRQIGGKGSARRKIKKVHKNSMSNEKKINLILKKIGASYFGDVDEICVYKAGDTYMEFKRPKLSASLQSNTYVVTGKFTEQKIDINKIFEGLKGNKNVDMNLLEKIKNDPNIKNLLNKENNGNAKKEEGAQEAADVPDLVENFEEVSKEEQK	soluble
SAAPSEVAAIAPGEGDGGGGGFGSWLDGRLEALGVDRAVYGAYILGILQEEEEEEKLDALQGILSAFLEEDSLLNICKEIVERWSETQNVVTKVKKEDEVQAIATLIEKQAQIVVKPRMVSEEEKQRKAALLAQYADVTDEEESLTEADEKDDSGATTMNIGSDKLLFRNTNVEDVLNARKLERDSLRDESQRKKEQDKLQRERDKLAKQERKEKEKKRTQRGERKR	soluble
MSLSLQQIDQIISILNKQSKPYDWVMQEFAKVEELKNFDLDLETFELLGLGLTLNKDNIFTLKTRTTKIKDEIFCIVDIESTGGVSKGEILEIGAVKIQNSKEIGRFQSFVKVKEIPKNITELTGITYEMVENASSLAKVLSDFRLFLKDSIFVAHNVRFDYSFISKALNECGFGILLNRRICTIEFAQCCIESPKYKLEVLKEFLGVENMHHRALDDALAAAEIFKYCLGKLPYHIKTTEELINFTKTARIKEGHHHHHH	soluble
MGSDKIHHHHHHMDKIYVLDTNVLLQDPLSIFSFETNEVVIPAVVLEEVDSKKRYMDEVGRNARYVSKLIDKFREIGKLHESIPLENGGTFRIELNHRSFVQLQDIFVEKTNDNRILAVAKNLSLEEQEKEDGKSVILVSKDVLVRVKADAIGLKAEDYLSDRVIEVENIYSGFLEGYISKEQLDYFYEKGELPLSEIANHPFYPNQFVVMKDALGGSSSALGIVDHLGKKVKKLIFHNEQVWGIRPRNVQQIMGLELLLREDIPLVTLTGKAGTGKTLLALASGLMQTEDLGLYKKLLVARPIVPVGKDIGYLPGEKEEKLRPWMQPIFDNLEYLFNTKKPGELDAILAGMGSIEVEALTYIRGRSIPDQFIIIDEAQNLTKHEVKTILTRVGEKSKIVLMGDPQQIDHPYLDEYNNGLTYVVEKFKEQRISGHVKFVKGERSNLAQLAADLL	not soluble
SRFADAVLDQYIGSIHSLCKDQHGCRFLQKQLDILGSKAADAIFEETKDYTVELMTDSFGNYLIQKLLEEVTTEQRIVLTKISSPHFVEISLNPHGTRALQKLIECIKTDEEAQIVVDSLRPYTVQLSKDLNGNHVIQKCLQRLKPENFQFIFDAISDSCIDIATHRHGCCVLQRCLDHGTTEQCDNLCDKLLALVDKLTLDPFGNYVVQYIITKEAEKNKYDYTHKIVHLLKPRAIELSIHKFGSNVIEKILKTAIVSEPMILEILNNGGETGIQSLLNDSYGNYVLQTALDISHKQNDYLYKRLSEIVAPLLVGPIRNTPHGKRIIGMLHLDS	soluble
METEICEQLGDLHLDKEAILLRAEQIEQDIKARKYSVIPPLSDEEQNLLDAEIAKRAAPPPGVPDAADFPLHDIVKELGLDKPVDGTDPEFYEELKAKDANTVYKNMKDVPDSIAAKYLPDLARRFVEFERRVKRVERMLWALPREDRSLEEDRFEILTELLDKSCQGLEIWEEHCERKIPLGHRCVLEGELIHLITSKFDLIDKICGEFDKLKNKRSEVNDERDMLRYEIRHCDMIFTEIHEKFLKSYLEMDW	not soluble
